The supplement of paper PMC12042874
± gives the uncertainty stated by the source.

Test: amyloid nucleation score (Sup35N fusion, yeast selection) (log enrichment); library NNK3; higher = more nucleation; inactive = no reads after selection
Method in brief: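 On medium lacking adenine and uracil, psi-negative yeast expressing peptides of 20 random codons fused to Sup35N were grown 7 days at 30°C after a 24-hour induction with 100 μM copper sulfate. Illumina sequencing of input and output plasmid inserts gave the reads, and sequences under 100 input reads were excluded. The nucleation score is the DiMSum log enrichment of output over input reads, centred on the mode score of non-aggregating sequences.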

Substance | amyloid nucleation score
VCGILRIIILGLMYVEALGW | inactive
VCLMNVSLRRSSFGATTVLA | inactive
VCMVEDFCCLPFDMLLYWLT | inactive
VCNIAQ | inactive
VCQPNRSQIQGIFLLRNYSV | inactive
VCRWSGGGEIGIICGLVSLV | inactive
VCSMWSSSSMIKLRALDDYM | inactive
VCTFTETHGTYLVFALYQPD | 0.367 ± 0.54
VCYYVFRTDIIIVIRVDAWL | inactive
VDCMATSQGRIRKYVNFVIW | 2.35 ± 0.08
VDEAEKGVNHLERRGSYSRY | inactive
VDFRYCCGFV | 0.824 ± 0.26
VDHRGALVEKFMNNSIWTSF | 0.122 ± 0.98
VDIGTYMFKMTHADRWVDHG | inactive
VDKLFCWGLYGLATVDNRVY | inactive
VDLRLDY | inactive
VDNSERLSLHPSVHMGDMGF | inactive
VDSSMDLHSIS | inactive
VDWWSALEDYYSLELLMEVK | inactive
VEDCSFAVVKILWYRPFMIW | inactive
VEIISFSVNKTFQAVFGVDK | 1.47 ± 0.072
VEPDRERKENVC | inactive
VEQLTEDKRWRSACKQRRKV | inactive
VESVRVLVINPNSDNQVLYL | inactive
VFAFGNIGLVRWFVI | inactive
VFCPTWFTMGGVCIAVAHLV | 0.486 ± 0.33
VFCVRRSLQNLRNSGNDSHR | inactive

Substance | amyloid nucleation score
VFDDY | inactive
VFDGWGLFRLSTICMCLQRH | inactive
VFFVNHFNVWLERM | inactive
VFICSAVTNNSWCERLDFSA | 1.5 ± 0.14
VFLSICSEGTFCLGDLSGCV | 2.43 ± 0.082
VFMKNLNKIDILTSGLDHIY | inactive
VFNGFVLKVEQVSIGVC | inactive
VFPGTAVNHMESVHGWLVNY | inactive
VFQHGWGEVLRSRQGLLGSR | inactive
VFRMCVYIDLVSLDSYYDVL | inactive
VFSIND | inactive
VFSRKKYRHPWMYAVTFGYC | inactive
VFVQTLILWVHSRIAALQDS | inactive
VFVSLISSMTIFTCFVPECE | 3.28 ± 0.069
VFVTM | inactive
VFYGKGETYQEWHSLYFLKS | -0.067 ± 0.98
VFYIHIREVTSVVIILVWCS | inactive
VFYIIW | 1.89 ± 0.063
VFYIYSRW | 1.69 ± 0.091
VFYSLMILSLLNSRRDGLHQ | 0.429 ± 0.48
VGAFLKLNRNLMTFSMARNY | inactive
VGASQRVYSLLST | inactive
VGDHDPSRFCQDNLCLSRCL | inactive
VGHIRVLDEDNNYMSFYDMR | inactive
VGKFSHACLRIN | inactive
VGKWGFQEGST | inactive
VGLNVSWAYIMVAEYVVYMS | -0.698 ± 0.53

Substance | amyloid nucleation score
VGNWYGKTIGMSSLEFLMSR | inactive
VGPRGGNVSEGPPRVWVNGC | inactive
VGQLFTSSSSVVSSGCMIVD | inactive
VGQWYGFMFWLLLLIIQS | inactive
VGSLIGMNYGF | inactive
VGSRAGYMRQLSVSACTRVL | inactive
VGTGICKRPGYRAGSV | inactive
VGTPCSYSWLAAPV | inactive
VGYLCFLFQTDSFI | inactive
VHCHV | -0.536 ± 0.93
VHDRSLHLVGY | -0.841 ± 1.2
VHGYAAFLRRWWEQMNFSVR | inactive
VHHEILHHGLFGEMSCVVEC | inactive
VHKFDSL | inactive
VHSCEMSSPPTILKVKLVYL | inactive
VHVLVVWYFAFTCVCRVPFG | 0.228 ± 0.85
VHVSEGPRWRFHSRRDSSVV | inactive
VIALVSGEYSWFRILCTPFY | inactive
VIFKKGLRLFTSSCDWSISD | inactive
VIHMH | inactive
VIIICQLHCYTKTMIIRHRC | 0.118 ± 0.3
VIKDYSQCMSWHGVESSWRL | -0.31 ± 0.68
VIMVSSRDQADLCESVMQM | inactive
VINCSAHTEFRGLNFRVTCT | inactive
VINVYTAINGSWALN | 2.17 ± 0.059
